{
  "source": "patent US20240401145A1",
  "about": "“METHOD FOR PREDICTING THE RESPONSE OF A PATIENT DIAGNOSED WITH CANCER TO TREATMENT AND/OR IMAGING WITH A COMPOUND TARGETING CCK2-R, AND COMPOUND FOR USE IN METHODS OF SELECTIVELY TREATING AND/OR IMAGING CANCER” (Paul Scherrer Institut, priority 2021, published 2024)",
  "origin": "cited, not measured here",
  "key": {"[1]": {"system": "transplanted CCKBR-expressing A431 cells", "details": "biodistribution in animal models; reported from WO 2015/067473 A1"}, "[2]": {"details": "gastrin analogues labeled with a radionuclide such as 111In; reported from WO 2015/067473 A1"}, "CCK2-R": {"molecular_target": "T1, CCK2-R (Homo sapiens, UniProt P32239)", "T1 sequence (P32239 1-447)": "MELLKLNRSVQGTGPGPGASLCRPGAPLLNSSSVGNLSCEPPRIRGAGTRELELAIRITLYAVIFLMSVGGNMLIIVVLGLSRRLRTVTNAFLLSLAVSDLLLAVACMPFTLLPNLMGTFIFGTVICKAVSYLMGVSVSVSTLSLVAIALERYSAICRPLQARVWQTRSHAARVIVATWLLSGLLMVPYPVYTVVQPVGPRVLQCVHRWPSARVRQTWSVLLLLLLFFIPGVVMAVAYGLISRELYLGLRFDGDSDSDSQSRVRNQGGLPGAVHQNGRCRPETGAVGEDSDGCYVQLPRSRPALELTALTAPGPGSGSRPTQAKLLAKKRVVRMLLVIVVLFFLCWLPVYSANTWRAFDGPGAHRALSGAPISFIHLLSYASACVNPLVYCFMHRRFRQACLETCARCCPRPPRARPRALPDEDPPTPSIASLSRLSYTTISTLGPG", "details": "known from prior art"}},
  "note": "Ends that are not written are not given here.",
  "data": [
    {"substance": "DOTA-(DGln)6-Ala-Tyr-Gly-Trp-Nle-Asp-Phe-NH2 [PP-F10N, reference compound]", "values": [
      {"measurement": "accumulation in the kidneys", "setting": "[1]", "result": "low accumulation"},
      {"measurement": "uptake in transplanted CCKBR-expressing A431 cells", "setting": "[1]", "result": "good uptake"},
      {"measurement": "chemical stability (resistance to proteolysis and oxidation)", "setting": "[2]", "result": "good"}
    ]},
    {"substance": "DOTA-(DGlu)6-Ala-Tyr-Gly-Trp-Nle-Asp-Phe-NH2 [PP-F11N]", "values": [
      {"measurement": "accumulation in the kidneys", "setting": "[1]", "result": "low accumulation"},
      {"measurement": "uptake in transplanted CCKBR-expressing A431 cells", "setting": "[1]", "result": "good uptake"},
      {"measurement": "chemical stability (resistance to proteolysis and oxidation)", "setting": "[2]", "result": "good"}
    ]},
    {"substance": "minigastrin: small peptide hormone known to bind CCK2-R with high affinity (WLEEEEEAYGWMDF; ends and bridges not checked; UniProt P01350 79-92, looked up)", "values": [
      {"measurement": "affinity of binding to CCK2-R", "setting": "CCK2-R", "result": "high affinity"}
    ]}
  ]
}
